Data from paper PMC5986196, “Arrest of trans-SNARE zippering uncovers loosely and tightly docked intermediates in membrane fusion” (The Journal of Biological Chemistry, 2018).

Biological target: T1, syntaxin 1a (syx(183–288)) (Rattus norvegicus, UniProt P32851 183-288)
T1 construct: also called N-terminally truncated variant of syntaxin; source: in n-octyl β-D-glucopyranoside
Assay: co-purification by ion exchange chromatography (Mono Q); purified monomers mixed overnight at 4 °C, complex purified the next day on a Mono Q column
Conditions: both partners purified

T1 sequence (P32851 183-288): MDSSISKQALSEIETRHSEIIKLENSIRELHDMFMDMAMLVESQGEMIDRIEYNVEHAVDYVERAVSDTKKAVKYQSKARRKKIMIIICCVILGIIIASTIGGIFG

B1: syb(49–96), C-terminal fragment of synaptobrevin (domain or fragment, Rattus norvegicus, UniProt P63045 49-96, looked up)
chain: NVDKVLERDQKLSELDDRADALQAGASQFETSAAKLKRKYWWKNLKMM
notes: synaptobrevin 2 (syb), Rattus norvegicus, residues 49–96; also called synaptobrevin(49–96)
B1: binds.
